In patent US20210388087A1 (Chugai, published 2021):

T1: Human CD3eg linker (human)
T1 construct: Single chain: epsilon and gamma subunits of human CD3 joined by a 29-mer linker, Flag-tag at the C-terminus; also called recombinant human CD3
T1 chain: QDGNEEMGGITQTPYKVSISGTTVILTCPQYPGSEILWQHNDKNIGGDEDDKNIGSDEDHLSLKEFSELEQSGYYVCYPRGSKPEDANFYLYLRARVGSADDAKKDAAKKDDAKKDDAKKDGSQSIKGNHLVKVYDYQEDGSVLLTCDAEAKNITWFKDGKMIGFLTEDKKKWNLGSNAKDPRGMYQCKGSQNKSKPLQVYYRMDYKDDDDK


Target: T1, Human CD3eg linker
Assay: Biacore SPR, vs template H183/L072

Row | fold change of affinity | Binder
1 | 0 fold | H183/L072 VH Q50T (antibody, name in Kabat numbering, V domains shown) VH: QVQLVESGGGLVQPGRSLRLSCAASGFTFSNAWMHWVRQAPGKGLEWVATIKDKGNAYAAYYAPSVKGRFTISRDDSKNSIYLQMNSLKTEDTAVYYCHYVHYASASTVLPAFGVDAWGQGTTVTVSS VL: DIVMTQSPLSLPVTPGEPASISCQASQELVHMNRNTYLHWYQQKPGQAPRLLIYKVSNRFPGVPDRFSGSGSGTDFTLKISRVEAEDVGVYYCAQGTSVPFTFGQGTKLEIK
2 | 0 fold | H183/L072 VH Q50N (antibody, name in Kabat numbering, V domains shown) VH: QVQLVESGGGLVQPGRSLRLSCAASGFTFSNAWMHWVRQAPGKGLEWVANIKDKGNAYAAYYAPSVKGRFTISRDDSKNSIYLQMNSLKTEDTAVYYCHYVHYASASTVLPAFGVDAWGQGTTVTVSS VL: DIVMTQSPLSLPVTPGEPASISCQASQELVHMNRNTYLHWYQQKPGQAPRLLIYKVSNRFPGVPDRFSGSGSGTDFTLKISRVEAEDVGVYYCAQGTSVPFTFGQGTKLEIK
3 | 0 fold | H183/L072 VH Q50P (antibody, name in Kabat numbering, V domains shown) VH: QVQLVESGGGLVQPGRSLRLSCAASGFTFSNAWMHWVRQAPGKGLEWVAPIKDKGNAYAAYYAPSVKGRFTISRDDSKNSIYLQMNSLKTEDTAVYYCHYVHYASASTVLPAFGVDAWGQGTTVTVSS VL: DIVMTQSPLSLPVTPGEPASISCQASQELVHMNRNTYLHWYQQKPGQAPRLLIYKVSNRFPGVPDRFSGSGSGTDFTLKISRVEAEDVGVYYCAQGTSVPFTFGQGTKLEIK
4 | 0.1 fold | H183/L072 VH Q50M (antibody, name in Kabat numbering, V domains shown) VH: QVQLVESGGGLVQPGRSLRLSCAASGFTFSNAWMHWVRQAPGKGLEWVAMIKDKGNAYAAYYAPSVKGRFTISRDDSKNSIYLQMNSLKTEDTAVYYCHYVHYASASTVLPAFGVDAWGQGTTVTVSS VL: DIVMTQSPLSLPVTPGEPASISCQASQELVHMNRNTYLHWYQQKPGQAPRLLIYKVSNRFPGVPDRFSGSGSGTDFTLKISRVEAEDVGVYYCAQGTSVPFTFGQGTKLEIK
5 | 0 fold | H183/L072 VH Q50V (antibody, name in Kabat numbering, V domains shown) VH: QVQLVESGGGLVQPGRSLRLSCAASGFTFSNAWMHWVRQAPGKGLEWVAVIKDKGNAYAAYYAPSVKGRFTISRDDSKNSIYLQMNSLKTEDTAVYYCHYVHYASASTVLPAFGVDAWGQGTTVTVSS VL: DIVMTQSPLSLPVTPGEPASISCQASQELVHMNRNTYLHWYQQKPGQAPRLLIYKVSNRFPGVPDRFSGSGSGTDFTLKISRVEAEDVGVYYCAQGTSVPFTFGQGTKLEIK
6 | 0 fold | H183/L072 VH Q50W (antibody, name in Kabat numbering, V domains shown) VH: QVQLVESGGGLVQPGRSLRLSCAASGFTFSNAWMHWVRQAPGKGLEWVAWIKDKGNAYAAYYAPSVKGRFTISRDDSKNSIYLQMNSLKTEDTAVYYCHYVHYASASTVLPAFGVDAWGQGTTVTVSS VL: DIVMTQSPLSLPVTPGEPASISCQASQELVHMNRNTYLHWYQQKPGQAPRLLIYKVSNRFPGVPDRFSGSGSGTDFTLKISRVEAEDVGVYYCAQGTSVPFTFGQGTKLEIK
7 | 0 fold | H183/L072 VH Q50S (antibody, name in Kabat numbering, V domains shown) VH: QVQLVESGGGLVQPGRSLRLSCAASGFTFSNAWMHWVRQAPGKGLEWVASIKDKGNAYAAYYAPSVKGRFTISRDDSKNSIYLQMNSLKTEDTAVYYCHYVHYASASTVLPAFGVDAWGQGTTVTVSS VL: DIVMTQSPLSLPVTPGEPASISCQASQELVHMNRNTYLHWYQQKPGQAPRLLIYKVSNRFPGVPDRFSGSGSGTDFTLKISRVEAEDVGVYYCAQGTSVPFTFGQGTKLEIK
8 | 0 fold | H183/L072 VH Q50R (antibody, name in Kabat numbering, V domains shown) VH: QVQLVESGGGLVQPGRSLRLSCAASGFTFSNAWMHWVRQAPGKGLEWVARIKDKGNAYAAYYAPSVKGRFTISRDDSKNSIYLQMNSLKTEDTAVYYCHYVHYASASTVLPAFGVDAWGQGTTVTVSS VL: DIVMTQSPLSLPVTPGEPASISCQASQELVHMNRNTYLHWYQQKPGQAPRLLIYKVSNRFPGVPDRFSGSGSGTDFTLKISRVEAEDVGVYYCAQGTSVPFTFGQGTKLEIK

Further lines, the binder ahead of its results:

Row | Binder | fold change of affinity
9 | H183/L072 VH P100eI (antibody, name in Kabat numbering, V domains shown) VH: QVQLVESGGGLVQPGRSLRLSCAASGFTFSNAWMHWVRQAPGKGLEWVAQIKDKGNAYAAYYAPSVKGRFTISRDDSKNSIYLQMNSLKTEDTAVYYCHYVHYASASTVLIAFGVDAWGQGTTVTVSS VL: DIVMTQSPLSLPVTPGEPASISCQASQELVHMNRNTYLHWYQQKPGQAPRLLIYKVSNRFPGVPDRFSGSGSGTDFTLKISRVEAEDVGVYYCAQGTSVPFTFGQGTKLEIK | 1.4 fold
10 | H183/L072 VH Q50H (antibody, name in Kabat numbering, V domains shown) VH: QVQLVESGGGLVQPGRSLRLSCAASGFTFSNAWMHWVRQAPGKGLEWVAHIKDKGNAYAAYYAPSVKGRFTISRDDSKNSIYLQMNSLKTEDTAVYYCHYVHYASASTVLPAFGVDAWGQGTTVTVSS VL: DIVMTQSPLSLPVTPGEPASISCQASQELVHMNRNTYLHWYQQKPGQAPRLLIYKVSNRFPGVPDRFSGSGSGTDFTLKISRVEAEDVGVYYCAQGTSVPFTFGQGTKLEIK | 0.3 fold
11 | H183/L072 VH Q50D (antibody, name in Kabat numbering, V domains shown) VH: QVQLVESGGGLVQPGRSLRLSCAASGFTFSNAWMHWVRQAPGKGLEWVADIKDKGNAYAAYYAPSVKGRFTISRDDSKNSIYLQMNSLKTEDTAVYYCHYVHYASASTVLPAFGVDAWGQGTTVTVSS VL: DIVMTQSPLSLPVTPGEPASISCQASQELVHMNRNTYLHWYQQKPGQAPRLLIYKVSNRFPGVPDRFSGSGSGTDFTLKISRVEAEDVGVYYCAQGTSVPFTFGQGTKLEIK | 0 fold
12 | H183/L072 VH Q50K (antibody, name in Kabat numbering, V domains shown) VH: QVQLVESGGGLVQPGRSLRLSCAASGFTFSNAWMHWVRQAPGKGLEWVAKIKDKGNAYAAYYAPSVKGRFTISRDDSKNSIYLQMNSLKTEDTAVYYCHYVHYASASTVLPAFGVDAWGQGTTVTVSS VL: DIVMTQSPLSLPVTPGEPASISCQASQELVHMNRNTYLHWYQQKPGQAPRLLIYKVSNRFPGVPDRFSGSGSGTDFTLKISRVEAEDVGVYYCAQGTSVPFTFGQGTKLEIK | 0 fold
13 | H183/L072 VH P100eL (antibody, name in Kabat numbering, V domains shown) VH: QVQLVESGGGLVQPGRSLRLSCAASGFTFSNAWMHWVRQAPGKGLEWVAQIKDKGNAYAAYYAPSVKGRFTISRDDSKNSIYLQMNSLKTEDTAVYYCHYVHYASASTVLLAFGVDAWGQGTTVTVSS VL: DIVMTQSPLSLPVTPGEPASISCQASQELVHMNRNTYLHWYQQKPGQAPRLLIYKVSNRFPGVPDRFSGSGSGTDFTLKISRVEAEDVGVYYCAQGTSVPFTFGQGTKLEIK | 1.3 fold
14 | H183/L072 VH P100eM (antibody, name in Kabat numbering, V domains shown) VH: QVQLVESGGGLVQPGRSLRLSCAASGFTFSNAWMHWVRQAPGKGLEWVAQIKDKGNAYAAYYAPSVKGRFTISRDDSKNSIYLQMNSLKTEDTAVYYCHYVHYASASTVLMAFGVDAWGQGTTVTVSS VL: DIVMTQSPLSLPVTPGEPASISCQASQELVHMNRNTYLHWYQQKPGQAPRLLIYKVSNRFPGVPDRFSGSGSGTDFTLKISRVEAEDVGVYYCAQGTSVPFTFGQGTKLEIK | 1.8 fold
15 | H183/L072 VH Q50I (antibody, name in Kabat numbering, V domains shown) VH: QVQLVESGGGLVQPGRSLRLSCAASGFTFSNAWMHWVRQAPGKGLEWVAIIKDKGNAYAAYYAPSVKGRFTISRDDSKNSIYLQMNSLKTEDTAVYYCHYVHYASASTVLPAFGVDAWGQGTTVTVSS VL: DIVMTQSPLSLPVTPGEPASISCQASQELVHMNRNTYLHWYQQKPGQAPRLLIYKVSNRFPGVPDRFSGSGSGTDFTLKISRVEAEDVGVYYCAQGTSVPFTFGQGTKLEIK | 0.4 fold
16 | H183/L072 VH Q50L (antibody, name in Kabat numbering, V domains shown) VH: QVQLVESGGGLVQPGRSLRLSCAASGFTFSNAWMHWVRQAPGKGLEWVALIKDKGNAYAAYYAPSVKGRFTISRDDSKNSIYLQMNSLKTEDTAVYYCHYVHYASASTVLPAFGVDAWGQGTTVTVSS VL: DIVMTQSPLSLPVTPGEPASISCQASQELVHMNRNTYLHWYQQKPGQAPRLLIYKVSNRFPGVPDRFSGSGSGTDFTLKISRVEAEDVGVYYCAQGTSVPFTFGQGTKLEIK | 0.2 fold
17 | H183/L072 VH Q50E (antibody, name in Kabat numbering, V domains shown) VH: QVQLVESGGGLVQPGRSLRLSCAASGFTFSNAWMHWVRQAPGKGLEWVAEIKDKGNAYAAYYAPSVKGRFTISRDDSKNSIYLQMNSLKTEDTAVYYCHYVHYASASTVLPAFGVDAWGQGTTVTVSS VL: DIVMTQSPLSLPVTPGEPASISCQASQELVHMNRNTYLHWYQQKPGQAPRLLIYKVSNRFPGVPDRFSGSGSGTDFTLKISRVEAEDVGVYYCAQGTSVPFTFGQGTKLEIK | 0 fold
18 | H183/L072 VH Q50A (antibody, name in Kabat numbering, V domains shown) VH: QVQLVESGGGLVQPGRSLRLSCAASGFTFSNAWMHWVRQAPGKGLEWVAAIKDKGNAYAAYYAPSVKGRFTISRDDSKNSIYLQMNSLKTEDTAVYYCHYVHYASASTVLPAFGVDAWGQGTTVTVSS VL: DIVMTQSPLSLPVTPGEPASISCQASQELVHMNRNTYLHWYQQKPGQAPRLLIYKVSNRFPGVPDRFSGSGSGTDFTLKISRVEAEDVGVYYCAQGTSVPFTFGQGTKLEIK | 0 fold
19 | H183/L072 VH Q50F (antibody, name in Kabat numbering, V domains shown) VH: QVQLVESGGGLVQPGRSLRLSCAASGFTFSNAWMHWVRQAPGKGLEWVAFIKDKGNAYAAYYAPSVKGRFTISRDDSKNSIYLQMNSLKTEDTAVYYCHYVHYASASTVLPAFGVDAWGQGTTVTVSS VL: DIVMTQSPLSLPVTPGEPASISCQASQELVHMNRNTYLHWYQQKPGQAPRLLIYKVSNRFPGVPDRFSGSGSGTDFTLKISRVEAEDVGVYYCAQGTSVPFTFGQGTKLEIK | 0.3 fold
20 | H183/L072 VH Q50G (antibody, name in Kabat numbering, V domains shown) VH: QVQLVESGGGLVQPGRSLRLSCAASGFTFSNAWMHWVRQAPGKGLEWVAGIKDKGNAYAAYYAPSVKGRFTISRDDSKNSIYLQMNSLKTEDTAVYYCHYVHYASASTVLPAFGVDAWGQGTTVTVSS VL: DIVMTQSPLSLPVTPGEPASISCQASQELVHMNRNTYLHWYQQKPGQAPRLLIYKVSNRFPGVPDRFSGSGSGTDFTLKISRVEAEDVGVYYCAQGTSVPFTFGQGTKLEIK | 0 fold
